The values below come from patent US11421006B2, “T cell epitopes from Cockroach and methods of making and using same” (LA JOLLA INSTITUTE FOR ALLERGY AND IMMUNOLOGY, priority 2012, dated 2022).

“Also recorded” adds a separate entry of the source.

Sequences and labels used below:
B1: Bla g 1: German Cockroach (Blattella germanica) allergen Bla g 1 (protein, listed as Blattella germanica)
chain: NAIEFLNNIHDLLGIPHIPVTARKHHRRGVGITGLIDDIIAILPVDDLYALFQEKLETSPEFKALYDAIRSPEFQSIVGTLEAMPEYQNLIQKLKDKGVDVDHIIELIHQIFNIVRDTRGLPEDLQDFLALIPTDQVLAIAADYLANDAEVKAAVEYLKSDEFETIVVTVDSLPEFKNFLNFLQTNGLNAIEFLNNIHDLLGIPHIPVTGRKHLRRGVGITGLIDDIIAILPVDDLYALFQEKLETSPEFKALYDAIRSPEFQSIVETLKAMPEYQSLIQKLKDKGVDVDHIIELIHQIFNIVRDTRGLPEDLQDFLALIPIDQILAIAADYLANDAEVQAAVEYLKSDEFETIVVTVDSLPEFKNFLNFLQTNGLNAIEFINNIHDLLGIPHIPATGRKHVRRGVGINGLIDDVIAILPVDELYALFQEKLESSPEFKALYDAIRSPEFQSIVQTLKAMPEYQDLIQRLKDKGVDVDHFIELIKKLFGLSH
B2: Bla g 2: German Cockroach allergen Bla g 2 (protein, listed as Blattella germanica)
chain: MIGLKLVTVLFAVATITHAAELQRVPLYKLVHVFINTQYAGITKIGNQNFLTVFDSTSCNVVVASQECVGGACVCPNLQKYEKLKPKYISDGNVQVKFFDTGSAVGRGIEDSLTISNLTTSQQDIVLADELSQEVCILSADVVVGIAAPGCPNALKGKTVLENFVEENLIAPVFSIHHARFQDGEHFGEIIFGGSDWKYVDGEFTYVPLVGDDSWKFRLDGVKIGDTTVAPAGTQAIIDTSKAIIVGPKAYVNPINEAIGCVVEKTTTRRICKLDCSKIPSLPDVTFVINGRNFNISSQYYIQQNGNLCYSGFQPCGHSDHFFIGDFFVDHYYSEFNWENKTMGFGRSVESV
B3: Bla g 4: German Cockroach allergen Bla g 4 (protein, listed as Blattella germanica)
chain: AVLALCATDTLANEDCFRHESLVPNLDYERFRGSWIIAAGTSEALTQYKCWIDRFSYDDALVSKYTDSQGKNRTTIRGRTKFEGNKFTIDYNDKGKAFSAPYSVLATDYENYAIVEGCPAAANGHVIYVQIRFSVRRFHPKLGDKEMIQHYTLDQVNQHKKAIEEDLKHFNLKYEDLHSTCH
B4: Bla g 5: German Cockroach allergen Bla g 5 (protein, listed as Blattella germanica)
chain: MAPSYKLTYCPVKALGEPIRFLLSYGEKDFEDYRFQEGDWPNLKPSMPFGKTPVLEIDGKQTHQSVAISRYLGKQFGLSGKDDWENLEIDMIVDTISDFRAAIANYHYDADENSKQKKWDPLKKETIPYYTKKFDEVVKANGGYLAAGKLTWADFYFVAILDYLNHMAKEDLVANQPNLKALREKVLGLPAIKAWVAKRPPTDL
B5: Bla g 7: German Cockroach allergen Bla g 7 (protein, listed as Blattella germanica)
chain: MDAIKKKMQAMKLEKDNAMDRALLCEQQARDANIRAEKAEEEARSLQKKIQQIENDLDQTMEQLMQVNAKLDEKDKALQNAESEVAALNRRIQLLEEDLERSEERLATATAKLAEASQAADESERARKILESKGLADEERMDALENQLKEARFMAEEADKKYDEVARKLAMVEADLERAEERAETGESKIVELEEELRVVGNNLKSLEVSEEKANLREEEYKQQIKTLNTRLKEAEARAEFAERSVQKLQKEVDRLEDELVHEKEKYKYICDDLDMTFTELIGN
B6: Bla g 6: German Cockroach allergen Bla g 6 (protein, listed as Blattella germanica)
chain: MADEQLQLPPEQISVLRKAFDAFDREKSGSISTNMVEEILRLMGQPFNRRTLEELIDEVDADKSGRLEFDEFVTLAAKFIIEEDSEAMEKELREAFRLYDKEGNGYIPTSCLREILRELDEQLTSDELDMMIEEIDADGSGTVDFDEFMEMMTG

The first assay has as its system specific IgE antibody in donor sera. The experiment in a line: Serological determinations: specific IgE antibody binding by (streptavidin-)ImmunoCAP. Set-up: species or system human. The note with it: 34 donors. As for the experimental part: Serological determinations: Sera were analyzed for specific IgE antibody binding to rBla g 1, rBla g 2, rBla g 4, rBla g 5 and rPer a 7 using allergen-coated streptavidin-ImmunoCAPs. Recombinant allergens were expressed in Pichia pastoris (rBla g 1, rBla g 2, rBla g 4, rPer a 7) or Escherichia coli (rBla g 5) and purified by affinity chromatography. Purified allergens were biotinylated and bound to streptavidin-coated ImmunoCAPs (Phadia US Inc., Portage, Mich.) at an optimized amount of 1 μg per ImmunoCAP. Specific IgE antibody binding to extracts from Blattella germanica (i6), Dermatophagoides pteronyssinus (d1) and D. farinae (d2), and total IgE antibody were also measured by ImmunoCAP analysis.
In the case of B1, the “Donors responding (%), IgE” value turned out to be 12% and the “Donors responding, IgE (number)” value was 4.
With B2, the “Donors responding (%), IgE” value turned out to be 24% and the “Donors responding, IgE (number)” value is recorded as 8.
As to B3, the “Donors responding (%), IgE” value was found to be 12% and the “Donors responding, IgE (number)” value amounted to 4.
As for B4, the “Donors responding (%), IgE” value amounted to 44% and the “Donors responding, IgE (number)” value is given as 15.

Tested on in the next assay: not listed separately
The experiment in a line: Correlation between IgE and T cell responses per donor. Also on record: species or system human.
Conditions: not given
The source says: The correlation between T cell responses and IgE responses was further investigated by examining for each donor which allergens were recognized by IgE and T cell responses (Table V and Table IX).
Consider B1, for which the “Donors with Responses to: IgE Only” value is reported as 3, the “Donors with Responses to: Neither” value came out at 27 and the “Donors with Responses to: T Cell Only” value came out at 3.
On to B2, for which the “Donors with Responses to: IgE Only” value is on record as 7, the “Donors with Responses to: Neither” value was found to be 24 and the “Donors with Responses to: T Cell Only” value came to 2.
For the molecule B3, the “Donors with Responses to: IgE Only” value is recorded as 4, the “Donors with Responses to: Neither” value is listed as 30 and the “Donors with Responses to: T Cell Only” value is given as 0.
The like results for B4 were, in that order, 8, 15 and 4.
In the same order, the values of B5 are 4, 30 and 0.

The assay is the same for the next values; noted with them: IgE and T cell.
Regarding B1, the “Donors with Responses to: Both” value is given as 1.
Same read-out and setting: with B2 the figure was 1; with B3, 0.
Turning to B4, the “Donors with Responses to: Both” value was found to be 7.
As to B5, the “Donors with Responses to: Both” value was 0.

Another assay deals with Bla g-specific T cells (PBMC). The assay can be described thus: ELISPOT assays: IL-5, IFN-γ and IL-10 production by in vitro expanded PBMC of Cockroach-allergic donors. In kind it is cell-based, human.
Conditions: not given
As for the experimental part:
In vitro expansion of Bla g-specific T cells: PBMC were cultured in RPMI 1640 (V Scientific, Tarzana, Calif.) supplemented with 5% human serum (Cellgro, Herndon, Va.) at a density of 2×10^6 cells/ml in 24-well plates (BD Biosciences, San Jose, Calif.) and stimulated with 25 μg/ml German Cockroach (Blatella germanica; Bla g) extract (Greer, Lenoir, N.C.), or individual peptides. […] On day 14, cells were harvested and screened for reactivity against Bla g-specific peptide pools or individual peptides. ELISPOT assays: The production of IL-5, IFN-γ, and IL-10 was analyzed in ELISPOT assays. […] Cells were then incubated at a density of 1×10^5/well either with peptide pools or individual peptides (10 μg/ml), German Cockroach extract (25 μg/ml), PHA (10 μg/ml), or medium (containing 1% DMSO corresponding to the percentage of DMSO in the pools/peptides) as a control. […] Louis, Mo.). Spots were counted by computer-assisted image analysis (Zeiss, KS-ELISPOT reader, Munich, Germany). Each assay was performed in triplicate. The level of statistical significance was determined with a Student's t-test using the mean of triplicate values of the response against relevant pools or individual peptides versus the response against the DMSO control.
Take B2: the “T cell response pattern (IL-5 / IFN-γ), in words” value was “Little or no response; also recorded: responses were detected only for IFN-γ, and not for IL-5”.
In the case of B6, the “T cell response pattern (IL-5 / IFN-γ), in words” value is listed as “clear preponderance of IL-5”.
Still for that read-out and setting: with B3 the entry was “Little or no response”.
On the same count and under the same terms, with B4 the entry was “both IL-5 and IFN-γ responses were detected”; with B5, “Little or no response”.

Staying with this assay, now noted: 34 donors.
For B1, the “Donors responding (%), T cell” value was 12% and the “Donors responding, T cell (number)” value is 4.
The like results for B2 were, in that order, 9% and 3.
In the same order, the values of B6 are 17% and 5.
In the same order, the values of B3 are 0 (0) % and 0 (0).
B4: the “Donors responding (%), T cell” value came out at 32% and the “Donors responding, T cell (number)” value came out at 11.

Still in this assay, the particulars now being: all peptides of the protein.
For the molecule B1, the “IFN-γ SFC” value amounted to 890 SFC and the “IL-5 SFC” value stood at 1083 SFC.
In the same order, the values of B2 are 1553 SFC and 0 SFC.
In the same order, the values of B6 are 310 SFC and 4045 SFC.
In the case of B3, the “IFN-γ SFC” value was found to be 0 SFC and the “IL-5 SFC” value stood at 0 SFC.
B4: the “IFN-γ SFC” value is on record as 6875 SFC and the “IL-5 SFC” value turned out to be 9637 SFC.
In the same order, the values of B5 are 0 SFC and 0 SFC.

Staying with this assay, now noted: all peptides of the protein, IL-5 plus IFN-γ.
With B1, the “Total SFC” value was determined as 1973 SFC.
With B2, the “Total SFC” value turned out to be 1553 SFC.
Turning to B6, the “Total SFC” value is recorded as 4355 SFC.
The same measure, in the same setting: to B3 belongs 0 SFC; to B4, 16512 SFC; to B5, 0 SFC.

The same assay, now with this note: discussion, PBMC responses from 30 allergic donors.
Consider B6, for which the “share of the response accounted for by the allergen” value is listed as 20%.
Same read-out and setting: with B4 the figure was 65%.

Still in this assay, the particulars now being: of the 11 donors responding.
Turning to B4, the “donors with a strong Th1 bias (ratio >5-fold)” value is given as 3, the “donors with a strong Th2 bias” value is on record as 3 and the “donors with balanced responses” value is 5.

The same assay, now with this note: per protein.
Regarding B1, the “Ratio IL-5/IFNγ” value is reported as 1.22.
On the same count and under the same terms, to B2 belongs less than 0.01; to B6, 13.0; to B4, 1.40.

The assay is the same for the next values; noted with them: share of total Bla g response per protein.
In the case of B1, the “% Total Response” value was 8.1%.
Take B2: the “% Total Response” value turned out to be 6.4%.
Regarding B6, the “% Total Response” value came out at 17.9%.
As for B3, the “% Total Response” value is on record as 0.0%.
The same measure, in the same setting: to B4 belongs 67.7%; to B5, 0.0%.
